The labels stand for the following.
B1: σ1 of reovirus strain rsT3D-σ1T249I (parent), on purified virions [mammalian orthoreovirus, strain type 3 Dearing (T3D)] / GST-JAM-A ectodomain fusion protein [not stated] (parent complex)
chain 1: MDPRLREEVVRLIIALTSDNGASLSKGLESRVSALEKTSQIHSDTILRITQGLDDANKRIIALEQSRDDLVASVSDAQLAISRLESSIGALQTVVNGLDSSVTQLGARVGQLETGLAELRVDHDNLVARVDTAERNIGSLTTELSTLTLRVTSIQADFESRISTLERTAVTSAGAPLSIRNNRMTMGLNDGLTLSGNNLAIRLPGNTGLNIQNGGLQFRFNTDQFQIVNNNLTLKTTVFDSINSRIGAIEQSYVASAVTPLRLNSSTKVLDMLIDSSTLEINSSGQLTVRSTSPNLRYPIADVSGGIGMSPNYRFRQSMWIGIVSYSGSGLNWRVQVNSDIFIVDDYIHICLPAFDGFSIADGGDLSLNFVTGLLPPLLTGDTEPAFHNDVVTYGAQTVAIGLSSGGAPQYMSKNLWVEQWQDGVLRLRVEGGGSITHSNSKWPAMTVSYPRSFT
chain 2: SVTVHSSEPEVRIPENNPVKLSCAYSGFSSPRVEWKFDQGDTTRLVCYNNKITASYEDRVTFLPTGITFKSVTREDTGTYTCMVSEEGGNSYGEVKVKLIVLVPPSKPTVNIPSSATIGNRAVLTCSEQDGSPPSEYTWFKDGIVMPTNPKSTRAFSNSSYVLNPTTGELVFDPLSASDTGEYSCEARNGYGTPMTSNAVRMEAVERNVGV

This assay covers variants of B1. Briefly: SPR; 8×1012 (orange) particles/ml virus; GST-JAM-A captured on biosensor surface; parent: 98; read off a plot. Background: Surface plasmon resonance follows binding to a sensor surface in real time, without labels.
Turning to chain 1 N369A, the response is around 25 RU.

The values are drawn from publication PMC2588538, “Structure of Reovirus σ1 in Complex with Its Receptor Junctional Adhesion Molecule-A” (PLoS Pathogens, 2008).
